# From article PMC8635308, “Neuropilin 1 regulates bone marrow vascular regeneration and hematopoietic reconstitution” (Nature Communications, 2021)
# T1: Mouse NRP1 (Recombinant Mouse Neuropilin-1 Protein, CF) (mouse, UniProt P97333 22-856)
# T1 construct: Neuropilin-1, mouse, recombinant soluble protein; also called murine NRP1; mouse NRP1 receptor; source: bought: R&D Systems
# T1 sequence (looked up): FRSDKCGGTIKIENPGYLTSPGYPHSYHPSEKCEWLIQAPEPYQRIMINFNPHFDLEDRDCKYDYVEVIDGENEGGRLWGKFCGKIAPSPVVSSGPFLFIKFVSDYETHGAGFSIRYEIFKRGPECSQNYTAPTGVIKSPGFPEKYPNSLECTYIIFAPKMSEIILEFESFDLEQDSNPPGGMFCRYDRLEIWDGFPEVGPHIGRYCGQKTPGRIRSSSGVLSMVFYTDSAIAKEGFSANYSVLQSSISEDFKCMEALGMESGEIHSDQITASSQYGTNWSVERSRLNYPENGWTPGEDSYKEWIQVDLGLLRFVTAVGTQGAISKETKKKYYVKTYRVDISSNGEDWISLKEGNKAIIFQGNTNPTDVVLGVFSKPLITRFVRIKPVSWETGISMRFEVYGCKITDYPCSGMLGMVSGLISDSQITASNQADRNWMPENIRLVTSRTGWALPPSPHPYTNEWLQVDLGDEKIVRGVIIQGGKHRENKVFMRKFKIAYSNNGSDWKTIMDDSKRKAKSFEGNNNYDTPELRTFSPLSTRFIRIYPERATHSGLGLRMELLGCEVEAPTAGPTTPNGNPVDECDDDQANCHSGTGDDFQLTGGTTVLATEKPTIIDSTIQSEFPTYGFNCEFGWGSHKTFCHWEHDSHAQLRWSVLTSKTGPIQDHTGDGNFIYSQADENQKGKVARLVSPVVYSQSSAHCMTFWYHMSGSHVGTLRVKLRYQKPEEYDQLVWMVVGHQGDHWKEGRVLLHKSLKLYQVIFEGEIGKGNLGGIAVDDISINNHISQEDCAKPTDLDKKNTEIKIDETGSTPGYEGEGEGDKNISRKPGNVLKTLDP
# B1: recombinant mouse SEMA3A Fc (muSEMA3A, Asn21-Lys747) (Fc fusion, UniProt O08665 21-747, looked up)
# chain: NYANGKNNVPRLKLSYKEMLESNNVITFNGLANSSSYHTFLLDEERSRLYVGAKDHIFSFNLVNIKDFQKIVWPVSYTRRDECKWAGKDILKECANFIKVLEAYNQTHLYACGTGAFHPICTYIEVGHHPEDNIFKLQDSHFENGRGKSPYDPKLLTASLLIDGELYSGTAADFMGRDFAIFRTLGHHHPIRTEQHDSRWLNDPRFISAHLIPESDNPEDDKVYFFFRENAIDGEHSGKATHARIGQICKNDFGGHRSLVNKWTTFLKARLICSVPGPNGIDTHFDELQDVFLMNSKDPKNPIVYGVFTTSSNIFKGSAVCMYSMSDVRRVFLGPYAHRDGPNYQWVPYQGRVPYPRPGTCPSKTFGGFDSTKDLPDDVITFARSHPAMYNPVFPINNRPIMIKTDVNYQFTQIVVDRVDAEDGQYDVMFIGTDVGTVLKVVSVPKETWHDLEEILLEEMTVFREPTTISAMELSTKQQQLYIGSTAGVAQLPLHRCDIYGKACAECCLARDPYCAWDGSSCSRYFPTAKRRTRRQDIRNGDPLTHCSDLQHHDNHHGPSLEERIIYGVENSSTFLECSPKSQRALVYWQFQRRNEDRKEEIRMGDHIIRTEQGLLLRSLQKKDSGNYLCHAVEHGFMQTLLKVTLEVIDTEHLEELLHKDDDGDGSKIKEMSSSMTPSQKVWYRDFMQLINHPNLNTMDEFCEQVWKRDRKQRRQRPGHSQGSSNK
# notes: Semaphorin 3A, mouse, Asn21-Lys747, truncated at the C-terminus (lacks the RNRR and RAPR stretches); also called Murine SEMA3A Fc; truncated murine SEMA3A; source: bought: R&D Systems
# Columns and labels:
# [1] = biological target: Mouse NRP1 (Recombinant Mouse Neuropilin-1 Protein, CF) (mouse) (UniProt P97333); experiment: SPR; Pioneer SensiQ; mouse NRP1 immobilised on a Polycarboxylate High Capacity (PCH) chip in 10 mM sodium acetate pH 5.0 (2307 RU for mouse SEMA3A Fc, 1565 RU for human SEMA3A Fc); SEMA3A-Fc flowed over; running buffer 20 mM HEPES pH 7.5, 150 mM NaCl, 0.005% Tween-20; OneStep kinetics, single concentration (100 nM mouse or 50 nM human SEMA3A Fc), 75 ul/min
# [2] = biological target: T1, Mouse NRP1 (Recombinant Mouse …); experiment: as above; settings: both partners purified
Molecule,Kd [1],Kd [2]
"recombinant human full length SEMA3A Fc (huSEMA3A, Lys26-Val771) (from UniProt Q14563 26-771) (Fc fusion)",1.8 nM,
B1,,~4.4 nM
